Biological target: the molecule itself
Experiment: SEC; Superdex 75 (10/300), proteins at 1 mg/ml, 100 mM NaCl, 20 mM HEPES pH 7.5; apparent molecular weight against mass standards

B1: APL1B LRR domain (APL1B-LRR) (domain or fragment, Anopheles gambiae, UniProt A7URS4 21-370, looked up)
chain: GQLSYKSMHLTPFTLSALLASFHKVEVLNLNGLQIEEIDTNAFAYAHTIQKLYMRFNVIRYLPPHVFQNVPLLTVLMLDRNDLSSLPPGIFHNTPKLTMLSMSNNNLERIEDDTFQATTSLQNLQLSSNRLTHVDLALIPSLFHVNVSYNLLSTLAIPIAVEELDASHNSINVVRGPVNVELTILKLQHNNLTDTAWLLNYPGLTDVDLSYNQLEIITIHHFVTMQRLERLHVSNNRLVAFDLYGRPIPTLKVLDLSHNHLMWVEHNQAQFDKLQYLYLDHNSIVTLKLSTSHTIKNLTLSHNDWDCNSLRALFRNVARPVVDDADQYCKIDYHLEHGLCCKESDKPYLD
modifications: N-linked glycosylation (predicted at Asn166, Asn211, Asn317; N-acetylglucosamine resolved at Asn166)
notes: APL1B of Anopheles gambiae, allele from strain G3, LRR domain; cloned as residues 1-370 with its signal peptide; the crystallized protein comprises APL1B 21-370 and a C-terminal 6xHis tag; Model in PDB 4XGO holds residues 25-364 (chain A) and 27-364 (chain B); source: T. ni cells (baculovirus, Bac-to-Bac), purified (Talon, MonoS, SEC); not shown: 6xHis, C-terminal, kept
- stoichiometry N: 2
